Experiment: soluble fraction after stress (log2 fold change); higher = more stays soluble; pooled small domains, quantitative proteomics
Conditions: stress: 50 degC
Summary of the method: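 The measure of aggregation propensity here is the base-two logarithm of the fold change in the soluble amount of each protein after stress. A higher value means more of that protein stays in solution. Stress was applied at 50°C to pooled libraries of small protein domains, read out by high-throughput quantitative proteomics.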

Sequence	soluble fraction (log2)
HMPKDLEKRAAILAAAKHLFPVHGFEGTSMDAIAALANVSKLTVYSHFKDKESLFTEAIREK	-0.087
HMPANLTPDYFKAEQWYRSASTNEEKMLALEQMLAVMPKHKGTEHLQADLKRKLSQLKDASAQ	0.148
HMKIDELKAYLFQSVRVKNPHTQEYDTLKIIELNYYQDKIKAKLKNSDDDYITEMIFESIKHLQNFLG	-0.298
HMFWRKIDFYGLNLSTYRNIINIGSDYNYIYLDLGNIYKILNPITGKIIEEQDLVMNIDNINWSS	-0.0971
HMAADWTAIKLAYVNGGMSMRELAQRFHVGAAGLMKRAAKEGWEAERQQNSAKVSNAAQMLIN	0.33
HMDDADPYEILGVERDAEDAEIKRAYHDLIRENHPDRLMAEGLPQEMIDVANEKVAFINDAYDRIEKLRGM	-0.241
HMTLGQHIQALRKEAGYSQEALGEALGVTRQSISKWESDQAIPEVDKLVTLSRLFQVPVGVLLQVEQP	-0.16
HMATQTGTVKWFNEGKGFGFIAPDDGSKDLFAHFSEIKTTGFKTLAEAQRVEFEVTEGRKGLQASNIK	0.0521
HMSGALDTVVGIRMLKLLSTPIEKSKAFQVGIINKDGKKLRDPTSGERQHYTFLNRFVFKVQYALMRS	-0.211
HMNTISYTELIKQIDEGNVEKVEMTVGSTSVKVKLQGQEEEKKAIVPNTQAFVELIQEKTLEGNQIDLKQN	-0.0333
HMSQIDLQIGHKIKSKRRKLGISQADMAKKLYISPSYLNLIESGKRKINVDLLLKLSNELGIEMSDIS	-0.478
HMGKIINMSKVKQVLRLHTQGVSNRRIALDLGLYKGTVNSYIRKIKDHGYDIAEVLKLDDPVLESKLFA	-0.227
HMTRHIQVNDSIASTPIEDVYFSTRTYNALLNNGISVIGDLSKYTHDDLYASFQGLGRAGVLEIEAYLRQD	-1.53
HMGVAAEDPDEAEKGAHSLKSSAANVGAEVVRGLAGEIESAASSGDVEAVRTILPGLEDAYSQAITDLET	0.0162
HMASMNPVWLEFPNIPWGSAGWRMGWGEDYMRRWAKWYISLAEVERQSYKSDWPEPQEWEGFYAFMEHGT	-1.63
HMSADISIGYNIPKGSVTVSAGGRTLQEGIDYDINYDLGTIKITNQAILNAGLPVQVNFENNAS	0.149
HMSTESAHLGERMLNQALRAMHIEPDQITEAHWQKLIRDYGLKKKSEILTDIGLGKRQNVMVAHQLLAMG	-0.106
HMNLLSPREKQSLTLYASGLTLREVASELKLSPNSVGKFISRGKFKLNKSGAIVNSKTSIYLELKKRNLI	-0.111
HMKTITLDEAQEIALAEVDGKVTRAVEETDDGRSYYEFDIITNDQKHELEVDASSGKITKNEIDEDYVPS	0.171

Sequence	soluble fraction (log2)
HMSKLQETEIPVALEVEKIPGLSNELKQKLLKIKPQTIGQASRISGITPAAISILMIYIKKNESISAVK	-1.57
HMTFEPVYDENSRILILGTFPSVKSREQQFYYGHPQNRFWKLLAALTGWKVPKTISEKKELLLQNGIA	-0.136
HMVFQTAAEKAYEIISKKIMKGEYEPGMRLVRRQLAQELGVSPIPILEAMKRLEQDGLIEYKAHWGSIVTI	-1.97
HMTGEEVLIMLGEKMKLIRNYNGYSQRQIAEILKIERSTYASYETGRNRPDIFAVQRFAKIFNVSVDYIL	-0.118
HMKNVADEVFEKMLNMIIEGDWKKGEMIPSENELREAFSVSRSTVRQAVQRLSALGIVRSRQGKGTYVEQV	-1.04
HMPHTDATDKQIIALILETLKDGQKHSVSEMTFPGIPREKTAQLLHQMIEEETVRIQNGVLFLPH	-0.109
HMLSVRERMSAILVSLEGERYADFTGLFDPTEGKGGVTVTFLAILELLKESMIDVVQNELYGPIHVRAA	-0.368
HMSEHKFIVPEEFNLKRLDQTVAAQFEKISRTKISKIIKSSLLKVNDKVVTDQSIKIKQDDVITFTEIKDQ	0.0288
HMTATSKKAAWDEVNKIFPTDYERSAAESERAGYAIFRSTAEGVNAWISDLGDRLEINLPDGKTVNIWIEE	-0.282
HMFERFIFTDEVYIRLKKSGLPQTTLRPLLEIHGKSFDHNEINIILSGLIPNQDFERYAQIIKSHSRF	-3.82
HMYTPDYLSDLMVRMAHHSTAIEGNTLTQGETKSVLVDGYIPRAMDMRELNEVLNYKAFMTFLVE	-0.0969
HMSADEVSQQLTSEQTKSKSYQALLQAYAAYQQKSFDDAALELQNVQQDVLSDSQKTIYNTISQAVNS	0.185
HMNMAEETLDTAAKILKAAEEEFMEKGYGNAKMMSIAARAGVSHSMLHYYYRSKGKLFQMIFDEKA	-1.4
HMEELIEMNGVVMEILPDSRYRVTLDNGHKLIAYTGGKMKKNHIRILAGDKVTLELSPYDINNGRITFRHI	-1.28
HMSTVIENVFKNFEVYEIKKGDTFYNIEKRFGVNRQELLVLNPELKEGLKLGMVLKIKEIIP	-1.07
HMFDTVFIVRKTSDKPLDGLRTYLNSIGDSLVIGEDDEAFKVHVHTNHPGKVLEEAITYGALQTVKIENMR	-0.966
HMAAGADEATTVPNVSGDTLNQAIKSLKAEGLGYMLSGAGARVRDQMPEPGAEMTKGSVVMLYMDGDAEVD	-0.0304
HMPEDQISYTDLIKQINDGNVEKIKMTVGSTTIKVNLKEQEEPKTAIVPSTQAFIELVQEKVQDGNEITLI	0.119
HMYGVAEFDEKGNVLSIEEKPVQPKSNYAVVGLYFYPNKVVGVASGIKPSARGELEITTVNQTFLRDEELK	0.0827

— the domain aggregation screens of Martell et al. (2025)
